Source: patent CN115960228A (UNIV XUZHOU MEDICAL, dated 2023)

Target: T1, CD19 protein on the cell surface (细胞表面的CD19蛋白) (human, UniProt P15391 20-556)
T1 construct: whole, on cells; also called 人CD19
T1 sequence (looked up): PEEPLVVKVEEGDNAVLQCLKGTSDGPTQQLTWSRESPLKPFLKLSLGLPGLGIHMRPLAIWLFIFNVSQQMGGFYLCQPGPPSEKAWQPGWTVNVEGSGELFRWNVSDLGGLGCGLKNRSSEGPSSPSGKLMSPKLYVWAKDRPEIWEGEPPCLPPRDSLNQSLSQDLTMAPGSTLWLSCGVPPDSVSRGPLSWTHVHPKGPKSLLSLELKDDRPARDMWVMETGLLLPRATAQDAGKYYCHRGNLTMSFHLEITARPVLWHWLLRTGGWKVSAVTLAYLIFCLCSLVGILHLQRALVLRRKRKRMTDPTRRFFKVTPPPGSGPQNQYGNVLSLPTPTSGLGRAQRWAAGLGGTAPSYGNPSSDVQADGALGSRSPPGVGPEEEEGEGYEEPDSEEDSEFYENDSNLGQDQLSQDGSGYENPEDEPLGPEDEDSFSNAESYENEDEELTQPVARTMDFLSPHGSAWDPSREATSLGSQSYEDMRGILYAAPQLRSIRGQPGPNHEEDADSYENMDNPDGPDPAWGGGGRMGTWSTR
Experiment: flow cytometry on cells; antibody purified from cell supernatant or ascites, compared with hybridoma supernatant

B1: CD19-6E1B8抗体 (anti-human CD19 monoclonal antibody, clone 6E1B8) (antibody, V domains shown)
VH: EVQLKESGPGLVAPSQSLSITCTVSGFSLTSHGVSWVRQPPGKGLEWLGVIWGDGRTSYHSALISRLSISKSDSKSQVFLKLNSLQTDDTATYYCAKKGAYYGSDYRYYAMDSWGQGTSVTVSS
VL: DIQLTQTPLSLPVSLGDQASISCRSSQSLVYSNGNTYLHWYLQKPGQSPKLLIYKASNRFSGVPDRFSGSGSGTDFTLKISRVEAEDLGVYFCSQSTHVPWTFGGGTKLEIKR
notes: It was purified on Protein G from ascites or from cell supernatant; also called CD19抗体; 抗CD19的单克隆抗体
**Q.** Does B1 bind?
**A.** Result: binds
